The target of this test is T1, HR1 peptide of the PEDV spike glycoprotein (optimal focused HR1 domain) (porcine epidemic diarrhea virus (PEDV)).
T1 construct: Spike glycoprotein of porcine epidemic diarrhea virus (PEDV), heptad repeat 1; numbers count on: GenBank ALS35469.1; source: synthetic peptide (China Peptides)
T1 peptide: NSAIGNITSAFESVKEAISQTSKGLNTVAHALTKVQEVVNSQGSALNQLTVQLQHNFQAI
The test can be described thus: SEC; HR1 and tHR2 mixed, each at 15 uM, incubated 2 h; Superdex G75, 20 mM Tris-HCl pH 8.0; mass estimated against protein standards. The following applies: both partners purified.

The text below walks through data of PMC7267768, “Three kinds of treatment with Homoharringtonine, Hydroxychloroquine or shRNA and their combination against coronavirus PEDV in vitro” (Virology Journal, 2020).

B1: truncated HR2 peptide tHR2 of the PEDV spike glycoprotein (1278-1316, 39Aa) (peptide)
peptide: LTGEIADLEQRSESLRNTTEELRSLINNINNTLVDLEWL
notes: Spike glycoprotein of porcine epidemic diarrhea virus (PEDV), truncated heptad repeat 2, residues 1278-1316 (39 residues); the predicted HR2 domain is 1263-1314; numbers count on: GenBank ALS35469.1; source: synthetic peptide (China Peptides)
In the case of B1, the “stoichiometry N” value is ~1 tHR2 per HR1 (3:3).

One may read the stoichiometry N as a count of units in the complex or per binding partner.
